The results in this text go back to FireProtDB (doi:10.1021/bi00123a002).

The chains are these.
B1: Tryptophan synthase alpha chain, P00929 (parent)
chain: MERYENLFAQLNDRREGAFVPFVTLGDPGIEQSLKIIDTLIDAGADALELGVPFSDPLADGPTIQNANLRAFAAGVTPAQCFEMLALIREKHPTIPIGLLMYANLVFNNGIDAFYARCEQVGVDSVLVADVPVEESAPFRQAALRHNIAPIFICPPNADDDLLRQVASYGRGYTYLLSRSGVTGAENRGALPLHHLIEKLKEYHAAPALQGFGISSPEQVSAAVRAGAAGAISGSAIVKIIEKNLASPKQMLAELRSFVSAMKAASRA

In the series the parent is B1. The following applies: Salmonella typhimurium (strain LT2 / SGSC1412 / ATCC 700720), pH 7.8, 25 °C, Urea, CD, Potassium phosphate 10 mM, reversible: yes, structure 2WSY, whole UniProt chain shown.

Several values for one entry are separate records, joined by “and”; a condition that tells them apart may be missing. Equal values may be shown once.

Regarding MERYENLFAQLNDRREGAFVPLVTLGDPGIEQSLKIIDTLIDAGADALELGVPFSDPLADGPTIQNANLRAFAAGVTPAQCFEMLALIREKHPTIPIGLLMYANLVFNNGIDAFYARCEQVGVDSVLVADVPVEESAPFRQAALRHNIAPIFICPPNADDDLLRQVASYGRGYTYLLSRSGVTGAENRGALPLHHLIEKLKEYHAAPALQGFGISSPEQVSAAVRAGAAGAISGSAIVKIIEKNLASPKQMLAELRSFVSAMKAASRA [F22L], the “ddG of mutation (higher = less stable)” value stood at 1.05 kcal/mol and the unfolding free energy stood at 12.1 kcal/mol. For the same variant, for the setting “transition: 3”, the denaturant m value is 2.96 kcal/mol/M and 1.7 kcal/mol/M; the “denaturant midpoint (higher = more stable)” value (“denaturant midpoint” below) is 2.1 M and 3.3 M; the unfolding free energy is 6.38 kcal/mol and 5.73 kcal/mol.

In the case of MERYENLFAQLNDRREGAFVPIVTLGDPGIEQSLKIIDTLIDAGADALELGVPFSDPLADGPTIQNANLRAFAAGVTPAQCFEMLALIREKHPTIPIGLLMYANLVFNNGIDAFYARCEQVGVDSVLVADVPVEESAPFRQAALRHNIAPIFICPPNADDDLLRQVASYGRGYTYLLSRSGVTGAENRGALPLHHLIEKLKEYHAAPALQGFGISSPEQVSAAVRAGAAGAISGSAIVKIIEKNLASPKQMLAELRSFVSAMKAASRA [F22I], the “ddG of mutation (higher = less stable)” value stood at 4.58 kcal/mol and the unfolding free energy was found to be 8.58 kcal/mol. Further, for the setting “transition: 3”, the denaturant m value is 1.57 kcal/mol/M and 1.51 kcal/mol/M; the “denaturant midpoint” value was 2 M and 3.6 M; the unfolding free energy is 3.16 kcal/mol and 5.43 kcal/mol.

For the variant MERYENLFAQLNDRREGAFVPVVTLGDPGIEQSLKIIDTLIDAGADALELGVPFSDPLADGPTIQNANLRAFAAGVTPAQCFEMLALIREKHPTIPIGLLMYANLVFNNGIDAFYARCEQVGVDSVLVADVPVEESAPFRQAALRHNIAPIFICPPNADDDLLRQVASYGRGYTYLLSRSGVTGAENRGALPLHHLIEKLKEYHAAPALQGFGISSPEQVSAAVRAGAAGAISGSAIVKIIEKNLASPKQMLAELRSFVSAMKAASRA [F22V], the “ddG of mutation (higher = less stable)” value is 3.44 kcal/mol and the unfolding free energy turned out to be 9.72 kcal/mol. Also, under “transition: 3”, the “ddG of mutation (higher = less stable)” value was -0.06 kcal/mol, the denaturant m value worked out at 1.74 kcal/mol/M, the “denaturant midpoint” value is 3.3 M and the unfolding free energy was 5.87 kcal/mol.
